In patent US20230277625A1 (SIMCHA IL 18, published 2023):
Changes are numbered by the printed parent chain.

T1: Human IL-18Rα ectodomain (amino acids 19-329), biotinylated (human, UniProt Q13478 19-329, biotin on the AviTag (BirA ligase))
T1 construct: range 19-329; Secreted from insect cells (gp67 signal peptide removed); also called hIL-18Rα; hIL18Rα
T1 sequence: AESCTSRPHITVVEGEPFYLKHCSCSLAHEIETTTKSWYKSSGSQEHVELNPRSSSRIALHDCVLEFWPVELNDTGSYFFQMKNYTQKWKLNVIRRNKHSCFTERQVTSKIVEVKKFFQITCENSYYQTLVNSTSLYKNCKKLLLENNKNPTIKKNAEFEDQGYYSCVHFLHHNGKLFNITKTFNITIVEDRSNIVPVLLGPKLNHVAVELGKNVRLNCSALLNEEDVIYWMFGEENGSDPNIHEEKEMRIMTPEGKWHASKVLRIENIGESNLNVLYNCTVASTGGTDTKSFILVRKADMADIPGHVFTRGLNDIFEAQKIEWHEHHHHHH

T2: Human IL-18BP (amino acids 31-194), biotinylated (human, UniProt O95998 31-194, biotin on the AviTag (BirA ligase) where used biotinylated)
T2 construct: Soluble decoy receptor; also called hIL-18BP; recombinant IL-18BP
T2 sequence: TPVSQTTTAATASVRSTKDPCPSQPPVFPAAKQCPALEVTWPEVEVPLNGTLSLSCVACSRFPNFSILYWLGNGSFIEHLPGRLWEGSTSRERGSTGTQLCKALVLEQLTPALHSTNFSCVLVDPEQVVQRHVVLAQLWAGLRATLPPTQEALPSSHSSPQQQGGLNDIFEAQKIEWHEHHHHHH

B1: SEQ ID NO: 87 (second generation human DR-IL-18 variant 6-31) (ligand)
chain: YFGKLESKLSVIRNLNDQVLFIDQGNRPLFEDMTDSDCRDNAPRTIFIISKYGDSGARGLAVTISVKCEKISTLSCENKIISFKEMNPPDNIKDTKSDIIFFERDVPGHSGKVQFESSSYEGYFLACEKERDLFKLILKKEDELGDRSIMFTVQNED
notes: Engineered variant; recombinant soluble analyte in SPR and cell assays
B2: SEQ ID NO: 90 (second generation human DR-IL-18 variant 6-27) (ligand)
chain: B1 chain with G53S, G56R, E103A, D105S, S110G, G111R, V113T
notes: as for B1

Assays:
[1] = biological target: T1, Human IL-18Rα ectodomain (amino acids …); test: SPR (Biacore T100), hIL-18Rα as surface ligand; Exp 2
Experimental: (§1) Surface Plasmon Resonance (SPR) was used to perform biophysical affinity measurements of second generation DR-IL-18 variants (binding to IL-18R vs IL-18BP). Experiments were conducted using a Biacore T100 instrument and carried out at 25° C. Biotinylated IL-18Rα or IL-18BP were immobilized onto a Biacore biotin capture chip (Series S CAP sensor chip, GE Healthcare) to yield an Rmax of ˜50 RU (IL-18Rα) or ˜10 RU (IL-18BP). Measurements were made with serial dilutions of the IL-18 variants in HEPES buffered Saline-P+ buffer (10 mM HEPES pH 7.4, 150 mM NaCl, 0.005% surfactant P20). The surface was regenerated by three 60-sec injections of regeneration buffer (3/4 (v/v) 8M guanidine hydrochloride with ¼ (v/v) 1M sodium hydroxide). Experiments were performed in multiple channels simultaneously for increased observations. All data were analyzed with the Biacore T100 evaluation software version 2.0 with a 1:1 Langmuir binding model.

[2] = biological target: T2, Human IL-18BP (amino acids 31-194), …; test: on-yeast binding isotherms; KD ratio relative to WT IL-18; yeast-displayed variant; ratio normalized to WT, from the 20 µM placeholder
[3] = biological target: T1, Human IL-18Rα ectodomain (amino acids …); test: SPR
[4] = biological target: T1, Human IL-18Rα ectodomain (amino acids …); test: SPR, apparent KD, first value of the cell
Experimental: as §1

[5] = biological target: T2, Human IL-18BP (amino acids 31-194), …; test: on-yeast binding isotherms; 20 µM used for NBD; printed without '>'; yeast-displayed variant; ratio computed with 20 µM put in for NBD
[6] = biological target: T1, Human IL-18Rα ectodomain (amino acids …); test: on-yeast binding isotherm (flow cytometry), drawn summary table, IL18Rα (KD)
Experimental: Individual colonies of IL-18 yeast were grown overnight at 30° C. in SDCAA liquid media and induced in SGCAA liquid media for 1 day at 20° C. IL-18 display levels on yeast were verified by flow cytometry using an anti-cMyc tag antibody (anti-myc-PE; Cell Signaling Technologies). Receptor staining with biotinylated IL-18Rα (with or without IL-18R β) or biotinylated IL-18BP was performed in PBS supplemented with 0.5% BSA and 2 mM EDTA (PBE) on ice. All analysis was performed on a Sony SA3800 flow cytometer.

[7] = biological target: T1, Human IL-18Rα ectodomain (amino acids …); test: SPR, apparent KD, second value of the cell
Experimental: as §1

[8] = biological target: T1, Human IL-18Rα ectodomain (amino acids …); test: SPR (Biacore T100), hIL-18Rα as surface ligand; Exp 1
Experimental: as §1

[9] = biological target: T1, Human IL-18Rα ectodomain (amino acids …); test: SPR (Biacore T100), hIL-18Rα as surface ligand, 1:1 Langmuir
Experimental: as §1

[10] = biological target: T2, Human IL-18BP (amino acids 31-194), …; test: SPR; KD(IL-18BP)/KD(IL-18Rα) normalized to WT IL-18; SPR; ratio from the bound KD BP >10,000 nM
Experimental: as §1

Binder | Kd [1] [nM] | Dissociation Constant Ratio normalized to WT IL-18 [2] | Kd [3] [nM] | Kd [4] [nM] | KD ratio IL-18BP/IL-18Rα [5] | Kd [6] [nM] | Kd [7] [nM] | Kd [8] [nM] | koff [9] [s⁻¹] | kon [9] [M⁻¹ s⁻¹] | IL-18 BP:Rα Dissociation Constant Ratio [10]
B1 | 15.2 | > 7200 | 19.4 | 15.2 | > 490 | 41 | 19.4 | 19.4 | 0.00332 | 218000 | > 1.06e+06
B2 | 3.85 | > 7000 | 3.5 | 3.9 | > 480 | 42 | 3.5 | 3.48 | 0.00243 | 631000 | > 5.86e+06
